From patent US20220290200A1, “GENETICALLY MODIFIED HOST CELLS PRODUCING GLYCOSYLATED CANNABINOIDS” (OCTARINE BIO IVS, priority 2019, published 2022) come the findings set out here.

A short description of data set [1]: In vitro glycosyl transferase performance, purified enzymes, % conversion of cannabinoids to cannabinoid glycosides. It counts as biochemical. The settings on record: for Conversion % (CBD to the glycoside): acceptor CBD; for % conversion of CBDV to OB24 (CBDV-1′-O-β-D-glucoside): Table 33; for % conversion, 11-nor-9-carboxy-THC to OB41 (11-nor-9-carboxy-THC-1′-O-β-D-glucoside): substrate 11-nor-9-carboxy-THC, product OB41; for % conversion of CBD to OB9 (CBD-1′-O-β-D-xyloside): Table 26; for % conversion of CBDA to OB31 (CBDA-1′-O-β-D-glucoside): Table 37; for % conversion, CBG to OB33 (CBG-1′-O-β-D-glucosyl-3′-O-β-D-glucoside): product OB33; for % conversion, CBN to OB23 (CBN-1′-O-β-D-di-glucoside): substrate CBN, product OB23; for % conversion, THC to OB20 (THC-1′-O-β-D-glucoside): substrate THC, product OB20. Here is the method:
For in vitro studies of glycosyl transferase performance in glycosylating cannabinoids, purified Glycosyl transferases were prepared as follows:
5 mL of 2× concentrated LB medium+Ampicillin (50 μg/m L) was inoculated with E. coli XJb (DE3) strains expressing a glycosyl transferase of interest and incubated overnight at 30° C. with shaking. The following day, cell cultures were transferred into 500 mL of 2× concentrated LB medium+Ampicillin (50 μg/mL) and incubated overnight at 30° C. with shaking. The following day, the cell cultures were transferred to 1 L of 2× concentrated LB medium+Ampicillin (50 μg/mL)+3 mM arabinose+0.1 mM IPTG. Cells were incubated for 24 h at 20° C. with shaking. The following day, the cells were collected by centrifugation at 46500×g for 10 mins at 4° C. Cells were resuspended in 20 mL ice-cold GT buffer (50 mM Tris-HCl pH7.4+1 mM phenylmethanesulfonyl fluoride+1 cOmplete™, mini, EDTA-free Protease Inhibitor Cocktail tablet (Roche)). The resuspended material was transferred to a 50 mL falcon tube and kept at −80° C. for at least 15 mins. Falcon tubes were then thawed at room temperature, as the tubes were thawing the following reagents were added; 2.6 mM MgCl2, 1 mM CaCl2, 250 μL of a 1.4 mg/ml DNase solution (Sigma) dissolved in MilliQ water. Tubes were gently inverted to mix then were incubated for 5 mins at 37° C. Binding buffer was then added to the tubes (50 mM Tris-HCl pH7.4, 10 mM imidazole, 500 mM NaCl. 11.25 mL MilliQ water) and the pH adjusted to 7.4 with HCl. The mix was centrifuged at 15550×g for 15 mins at 4° C., the supernatant transferred to a fresh 50 mL falcon tubes and centrifuged again to remove any remaining cellular debris at 48400×g for 20 minutes at 4° C. While the enzyme prep was centrifuging, 3 mL of HIS-Select (available from Sigma P6611) column material was added to a fresh 50 mL tube and washed by adding MilliQ water up to 50 mL, centrifuging at 2000×g for 2 mins and discarding the supernatant. This washing step was repeated. Finally, MilliQ water was added to the HIS-Select material to an approximate 50% volume. Collected supernatant from the centrifuged enzyme preparation was transferred to the tube containing the HIS-Select material through a Miracloth (available from Merck Millipore), and then incubated at 4° C. with gently shaking by inversion for 2 h. After 2 h the mix was centrifuged at 2000×g for 4 minutes at 4° C. and the supernatant discarded. The remaining HIS-Select material was washed twice with 1× binding buffer (50 mM Tris-HCl, 0.5M NaCl, 10 mM Imidazole, pH 7.4) with centrifugation at 2000×g for 4 minutes at 4° C. The HIS-Select material was resuspended in 5 mL 1× binding buffer and transferred to a Poly-Prep®Chromatography Column (available from BioRad, 7311550). The HIS-Select material was kept at 4° C. and washed twice with 1× binding buffer by filling up the column and allowing it to drip through. Finally, purified Glycosyl transferases were eluted from the HIS-Select material by adding 7.5 mL of elution buffer (50 mM Tris-HCl, 500 mM Imidazole, pH7.4) and collecting the flow through. Enzymes were used immediately in in vitro enzyme assays or stored at −20° C. in 50% glycerol until needed.
In vitro conversion of various cannabinoids to cannabinoid glycosides was carried out according to table 21. Alkaline phosphatase was provided by New England Biolabs (M0371S). Cannabinoids were dissolved in methanol. The UDP-sugar (e.g. UDP-glucose) was provided by a commercial supplier (e.g. Sigma) or produced by in vitro enzymatic conversion from a commercially available UDP-sugar as shown in Example 21.
The reaction mixture was scaled up or down as required. The reaction mixture was incubated without shaking at 30° C. for 24 hours. Extraction and analysis were performed as described above for this example. […]

Data set [2] is described as follows: In vitro enzymatic cascade converting sucrose and CBD to CBD glycosides. Particulars: enzymes added: GmSuSy. It is filed as biochemical. An excerpt: In the previous examples, in vitro glycosyl transferase assays required the addition of an “activated” sugar (e.g. UDP-glucose), which is typically an extremely expensive reagent, furthermore, other activated sugars e.g. UDP-rhamnose are not available commercially and must be custom synthesized at high-cost and difficulty. […] To facilitate the low-cost production of cannabinoid glycosides not only with glucose, but with alternative sugars, an enzymatic cascade was set up to convert cannabinoids and the simple sugar sucrose into various cannabinoid glycosides. The cascade is divided into 3 steps, in step 1 sucrose and uridine diphosphate (UDP) is converted to UDP-glucose by GmSuSy (SEQ ID NO: 209, 210), additionally generating fructose as a bi-product. In step 2, UDP-glucose is interconverted to alternative UDP-sugars using a range of enzymes. For example, conversion of UDP-glucose to UDP-galactose by BsGa/E, multiple enzymes can also be used to produce UDP-sugars via other UDP-sugar intermediates. For example, conversion of UDP-glucose to UDP-glucuronic acid by AtUGDH1 combined with conversion of UDP-glucuronic acid to UDP-xylose by AtUXS3. In step 3, glycosyl transferases convert the activated sugar and a cannabinoid acceptor to the corresponding cannabinoid glycoside. For example, conversion of UDP-rhamnose and CBD to CBD-1′-O-β-D-rhamnoside (OB13) by Cs73Y (SEQ ID NO: 157, 158).
Enzymes were purified and the in vitro assay performed as described in Example 13 and the reaction mixture set up as shown in table 57. Enzymes and co-factors were added as required for each individual reaction. Samples were extracted and analyzed as stated above.

[3] abbreviates: substrate CBG, glycosyl transferase in vitro.

`C=C(C)C1CCC(C)=CC1c1c(O)cc(CCCCC)cc1OC1OC(C)C(O)C(O)C1O` [OB13, CBD-1′-O-α-L-rhamnoside]: the “Conversion % (CBD to the glycoside)” value in data set [1] (UDP-Rhamnose, enzyme PL-342(Cp73B_GA)) was 5.7%. Besides, in data set [2] (AtRHM2, Cs73Y), the “% Conversion of CBD and sucrose to CBD glycoside” value was determined as 15.2%.
Consider `C=C(C)[C@@H]1CCC(C)=C[C@H]1c1c(O[C@@H]2OC[C@@H](O)[C@H](O)[C@H]2O)cc(CCCCC)cc1O[C@@H]1OC[C@@H](O)[C@H](O)[C@H]1O` [OB10, CBD-1′-O-β-D-xylosyl-3′-O-β-D-xyloside], for which, in data set [1] (UDP-Xylose, enzyme PL-214(Cs73Y_GA)), the “Conversion % (CBD to the glycoside)” value was 97.4%. Besides, in data set [2] (AtUGDH1, AtUXS3, Cs73Y), the “% Conversion of CBD and sucrose to CBD glycoside” value was 72.3%.

B1: PL-28(At72B1_GA) (protein, UniProt Q9M156 1-480, looked up)
UDP-glycosyltransferase 72B1: MEESKTPHVAIIPSPGMGHLIPLVEFAKRLVHLHGLTVTFVIAGEGPPSKAQRTVLDSLPSSISSVFLPPVDLTDLSSSTRIESRISLTVTRSNPELRKVFDSFVEGGRLPTALVVDLFGTDAFDVAVEFHVPPYIFYPTTANVLSFFLHLPKLDETVSCEFRELTEPLMLPGCVPVAGKDFLDPAQDRKDDAYKWLLHNTKRYKEAEGILVNTFFELEPNAIKALQEPGLDKPPVYPVGPLVNIGKQEAKQTEESECLKWLDNQPLGSVLYVSFGSGGTLTCEQLNELALGLADSEQRFLWVIRSPSGIANSSYFDSHSQTDPLTFLPPGFLERTKKRGFVIPFWAPQAQVLAHPSTGGFLTHCGWNSTLESVVSGIPLIAWPLYAEQKMNAVLLSEDIRAALRPRAGDDGLVRREEVARVVKGLMEGEEGKGVRNKMKELKEAACRVLKDDGTSTKALSLVALKWKAHKKELEQNGNH
For the molecule B1, in data set [1] (glycosyl transferase in vitro), the “% conversion of CBDV to OB24 (CBDV-1′-O-β-D-glucoside)” value was 9.9% and the “% conversion, 11-nor-9-carboxy-THC to OB41 (11-nor-9-carboxy-THC-1′-O-β-D-glucoside)” value came to 0.9%.

B2: PL-214(Cs73Y_GA) (protein)
chain: MGSEGRQLHIFMFPFMAHGHMIPIVDMAKLFASRGIKITIVTTPLNSISISKSLHNCSPNSLIQLLILKFPAAEAGLPDGCENADSIPSMDLLPKFFEAVSLLQPPFEEALHNNRPDCLISDMFFPWTNDVADRVGIPRLIFHGTSCFSLCSSEFMRLHKPYQHVSSDTEPFTIPYLPGDIKLTKMKLPIFVRENSENEFSKFITKVKESESFCYGVVVNSFYELEAEYVDCYKDVLGRKTWTIGPLSLTNTKTQEITLRGRESAIDEHECLKWLDSQKPNSVVYVCFGSLAKFNSAQLKEIAIGLEASGKKFIWVVRKGKGEEEEEEQNWLPEGYEERMEGTGLIIRGWAPQVLILDHPSVGGFVTHCGWNSTLEGVAAGVPMVTWPVGAEQFYNEKLVTEVLKTGVGVGVQKWAPGVGDFIESEAVEKAIRRIMEKEGEEMRNRAIELGKKAKWAVGEEGSSYSNLDALIEELKSLAF
With B2, the “% conversion of CBD to OB13 (CBD-1′-O-α-L- rhamnoside)” value in data set [1] (glycosyl transferase in vitro, Table 25) is given as 4.4%. Also, in data set [1] (glycosyl transferase in vitro), the “% conversion of CBD to OB9 (CBD-1′-O-β-D-xyloside)” value was 6.9%; the “% conversion of CBDA to OB31 (CBDA-1′-O-β-D-glucoside)” value came out at 98.6%; the “% conversion, 11-nor-9-carboxy-THC to OB41 (11-nor-9-carboxy-THC-1′-O-β-D-glucoside)” value is recorded as 2.0%; the “% conversion, CBN to OB23 (CBN-1′-O-β-D-di-glucoside)” value was 98.6%. The “% conversion, THC to OB20 (THC-1′-O-β-D-glucoside)” value in data set [1] (glycosyl transferase in vitro) turned out to be 29.5%. Also, the “% conversion of CBD to OB6 (CBD-1′-O-β-D-glucosyl-3′-O-β-D-glucoside)” value in data set [1] (glycosyl transferase in vitro, Table 27) worked out at 95.8%. The “% conversion of CBD to OB10 (CBD-1′-O-β-D-xylosyl-3′-O-β-D-xyloside)” value in data set [1] (glycosyl transferase in vitro, Table 28) was 98.5%. Besides, in data set [1] (glycosyl transferase in vitro, Table 29), the “% conversion of CBD to OB7 (CBD-1′-O-β-D-tri-glucoside)” value came out at 27.3%. In addition, the “% conversion of CBD to OB8 (CBD-1′-O-β-D-glucosyl-3′-O-β-D-di-glucoside)” value in data set [1] (glycosyl transferase in vitro, Table 30) came to 12.3%. Moreover, in data set [1] (glycosyl transferase in vitro, Table 34), the “% conversion of CBDV to OB25 (CBDV-1′-O-β-O-glucosyl-3′-O-β-D-glucoside)” value was 91.0%. Also, in data set [1] (setting [3]), the “% conversion, CBG to OB33 (CBG-1′-O-β-D-glucosyl-3′-O-β-D-glucoside)” value was 100.0%.

B3: PL-182(Ha88B_2_GA) (protein)
chain: MESSTVVMYPSPGIGHLVSMVELGKLIHTHHPSLSVIILILTAPYETGATGKYINTVSATTPAITFHHLPAIALPPDFSSEFIDLAFGLPELYNSVVHNTLVAISQKSTIKAVILDFFSNAAFQVSTNLSLPTYYFFTSGTFGLCAFLYLTTLHKTTSKSIKDLNTLLDFPGVPPIHSSHMPTAIFDRESNSYKNFMKTSNNMAKCSGIIVNSFLELEERAVATLRDGKCITDGPTPPIYFIGPLIASGSQVDPNENECLKWLKTQPSKSVVFLCFGSMGVFEKEQLKEIAVGLERSGQRFLWVVRNPPLESSSGAKEFELDDILPEGFLTRTKDKGLVVKNWAPQPAILGHESVGGFVSHCGWNSSLEAVVSGVPMVAWPLYAEQQMNRVYLVEEIKVALWLRMSADGFVGAEAVEETVRKLMEGEEGRAVREQILEMSGGAKAAVEDGGSSRLDFLKLTRPWTDQ
As to B3, in data set [1] (glycosyl transferase in vitro, Table 24), the “% conversion of CBD to OB1 (CBD-1′-O-β-D-glucoside)” value was determined as 50.0%. In addition, in data set [1] (glycosyl transferase in vitro), the “% conversion of CBD to OB9 (CBD-1′-O-β-D-xyloside)” value is on record as 9.6%; the “% conversion of CBDV to OB24 (CBDV-1′-O-β-D-glucoside)” value turned out to be 89.0%; the “% conversion of CBDA to OB31 (CBDA-1′-O-β-D-glucoside)” value was determined as 15.5%; the “% conversion, CBN to OB23 (CBN-1′-O-β-D-di-glucoside)” value came to 68.0%. The “% conversion, THC to OB20 (THC-1′-O-β-D-glucoside)” value in data set [1] (glycosyl transferase in vitro) came out at 80.3%. The “% conversion, CBG to OB32 (CBG-1′-O-β-D-glucoside)” value in data set [1] (substrate CBG, product OB32, glycosyl transferase in vitro) is 82.9%. Also, in data set [1] (setting [3]), the “% conversion, CBG to OB33 (CBG-1′-O-β-D-glucosyl-3′-O-β-D-glucoside)” value turned out to be 26.5%.
